Laboratory results taken from PMC12860359, “Selection and optimization strategy for Rap1-targeting single-domain antibodies as platelet activation markers” (Research and Practice in Thrombosis and Haemostasis, 2025).
Numbering of substitutions follows the chain as printed. One block for each binder: values may come before it.

Key:
LexA-Rap1B G12V = biological target: T1, LexA-Rap1B G12V (Homo sapiens, G12V)
T1 chain: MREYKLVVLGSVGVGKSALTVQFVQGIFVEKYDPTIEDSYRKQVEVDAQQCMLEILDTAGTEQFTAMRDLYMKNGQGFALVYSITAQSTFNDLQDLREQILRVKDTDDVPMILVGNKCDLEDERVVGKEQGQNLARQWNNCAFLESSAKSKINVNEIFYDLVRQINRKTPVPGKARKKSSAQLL

VHH-hFcS A47 [1] = biological target: T2, VHH-hFcS A47; experiment: ELISA; VHH-FcS (1.25 μg/mL) captured on goat antihuman Fc (Fab')2-coated plates; human platelet lysates (6 × 10^6 platelets/well) loaded with GTPγS, or PRP before and after stimulation with TRAP or ADP; detection with anti-Rap1 monoclonal (Abcam) or polyclonal (Merck) antibody; details: one partner purified
T2 construct: VHH A47; Bivalent VHH-Fc; also called VHH-FcS A47; VHH-Fc silent A47; source: HEK293, transfected (pHLSec), serum-free medium, purified

VHH-hFcS B14 = biological target: T3, VHH-hFcS B14; experiment: as above; details: one partner purified
T3 construct: as the VHH of m19 (A47); Bivalent VHH-Fc; also called VHH-Fc B14; source: HEK293, transfected (pHLSec), serum-free medium, purified

VHH-hFcS B89 [2] = biological target: T4, VHH-hFcS B89; experiment: co-IP; immunoprecipitation: VHH-Fc (1-2 μg) on Protein A/G magnetic beads incubated overnight at 4 °C with human platelet lysates (~200 μg protein) loaded with GTPγS or from platelets stimulated with TRAP or ADP; Rap1 western blot; details: one partner purified
T4 construct: as the VHH of m19 (A47); Bivalent VHH-Fc; Some immunoprecipitations name only 'VHH-Fc B89' without the kind of Fc; also called VHH-Fc B89; source: HEK293, transfected (pHLSec), serum-free medium, purified

[3] = biological target: T5, VHH-Fc A64 (immunoprecipitation); experiment: as above; details: one partner purified
T5 construct: VHH A64; source: HEK293, transfected; 2 μg used

VHH-hFcS A47 [4] = biological target: T2, VHH-hFcS A47; experiment: BLI; OCTET R2; VHH-hFcS (2.5 μg/mL) on protein A biosensors; Rap1B loaded with GTPγS in solution at 0.04, 0.13, 0.4, 1.2 μM; 20 mM Tris-HCl pH 7.4, 0.1% BSA, 200 mM NaCl, 2 mM EDTA, 10 mM MgCl2; 25 °C; 1:1 fit; details: both partners purified
VHH-hFcS B89 [5] = biological target: T4, VHH-hFcS B89; experiment: as above; details: both partners purified

B1: A141 (VHH)
VHH: EVQLQASGGGFVQPGGSLRLSCAASGATSKLSAMGWFRQAPGKEREFVSAISAQNDFWTYYADSVKGRFTISRDNSKNTVYLQMNSLRAEDTATYYCAHHFPSTAKSYWGQGTQVTVSS
binding result (LexA-Rap1B G12V): binds

B4: MBP-HA Rap1B WT (natural protein, human, UniProt P61224-1 1-184, looked up)
chain: T1 chain with V12G
notes: loaded with GTPγS or GDP before the assays; this is the only recombinant wild-type Rap1B it describes; also called human Rap1B; recombinant Rap1B; source: E. coli BL21DE3, purified (amylose resin); not shown: MBP, N-terminal, kept; HA, N-terminal, kept
Kd (VHH-hFcS A47 [4]): 17.2 nM | Kd (VHH-hFcS B89 [5]): 4.4 nM | koff (VHH-hFcS B89 [5]): 0.000513 s⁻¹ | kon (VHH-hFcS B89 [5]): 166000 M⁻¹ s⁻¹

Next, values leading:

binding result (VHH-hFcS A47 [1]): binds | binding result (VHH-hFcS B14): binds | binding result (VHH-hFcS B89 [2]): binds | binding result [3]: binds
B2: Rap1 of human platelets (natural protein, human (endogenous in platelets), UniProt P61224 1-184, looked up)
chain: MREYKLVVLGSGGVGKSALTVQFVQGIFVEKYDPTIEDSYRKQVEVDAQQCMLEILDTAGTEQFTAMRDLYMKNGQGFALVYSITAQSTFNDLQDLREQILRVKDTDDVPMILVGNKCDLEDERVVGKEQGQNLARQWNNCAFLESSAKSKINVNEIFYDLVRQINRKTPVPGKARKKSSC
notes: also called active Rap1; source: endogenous, human platelet lysate

binding result (LexA-Rap1B G12V): binds
B3: A145 (VHH)
VHH: EVQLQASGGGFVQPGGSLRLSCAASGATWKHEIMGWFRQAPGKEREFVSAISSQPGLWDYYADSVKGRFTISRDNSKNTVYLQMNSLRAEDTATYYCATPGQRMIEYWGQGTQVTVSS
